The labels stand for the following.
B1: Pistol ribozyme (parent)
chain: GGGUCGUUGUUCCAUAAUCGCGUGGAUAUGGCACGCAAGUUUCUACCGGGCACCGUAAAUGUCCGACUGGAGCCGUUCGGGCGGCUAUAAACAGACCUCAGGCCCGAAGCGUGGCGGCACCUGCCGCCGGUGGUAAAAAAGAUCGGAAGAGCACACGUCU

This series covers variants of B1. In words: aptazyme ON/OFF ratio, guanine; higher = stronger switching; co-transcriptional cleavage with and without guanine.
Take U7G U8G G9C U10A C12U C13G: the “aptazyme ON/OFF ratio” value is 1.03. Next, U7G U8G G9C U10A C12U C13A: 1.01. In the case of U7G U8G G9C U10C U11A it was 1.64. Next, U7G U8G G9C U10C U11C: 1.22; U7G U8G G9C U10C U11G: 1.35; U7G U8G G9A U11G C13U: 1.3. Turning to U7G U8G G9A U11G C13G, the “aptazyme ON/OFF ratio” value was determined as 1.17.

As for U7G U8G G9A U11G C13A, the “aptazyme ON/OFF ratio” value stood at 1.26. As to U7G U8G G9C U10A C12A, the “aptazyme ON/OFF ratio” value is 1.03. In the case of U7G U8G G9C U10A C12G it was 1.03; in that of U7G U8G G9C U10A C12U, 1.02; in that of U7G U8G G9U U10A U11A C13A, 1.14. Regarding U7G U8G G9U U10A U11A C13G, the “aptazyme ON/OFF ratio” value came to 1.08. Next, U7G U8G G9U U10A U11A C13U: 1.28; U7G U8G G9C C12G: 1.47. On to U7G U8G G9C C12A, for which the “aptazyme ON/OFF ratio” value came out at 1.22.

For U7G U8G G9C C12U, the “aptazyme ON/OFF ratio” value is 1.94. In the case of U7G U8G G9C U11C C12G C13G it was 1.06; in that of U7G U8G G9C U11C C12G C13U, 1.39. As to U7G U8G G9C U11C C12G C13A, the “aptazyme ON/OFF ratio” value amounted to 1.16. In the case of U7G U8G G9C U10G U11C C12G C13A it was 1.19; in that of U7G U8G G9C U10G U11C C12G C13G, 1.05; in that of U7G U8G G9C U10G U11C C12G C13U, 1.16.

For U7G U8G G9C U10G U11C C13G, the “aptazyme ON/OFF ratio” value turned out to be 1.08.

Take U7G U8G G9C U10G U11C C13A: the “aptazyme ON/OFF ratio” value is 1.09. On to U7G U8G G9C U10G U11C C13U, for which the “aptazyme ON/OFF ratio” value stood at 1.05. Next, U7G U8G G9C U10A U11A C13A: 1.06; U7G U8G G9C U10A U11A C13U: 1.07.

Take U7G U8G G9C U10A U11A C13G: the “aptazyme ON/OFF ratio” value stood at 1.02. As to U7G U8G G9U C12U C13U, the “aptazyme ON/OFF ratio” value is 1.26.

As to U7G U8G G9U C12U C13A, the “aptazyme ON/OFF ratio” value stood at 1.23.

With U7G U8G G9U C12U C13G, the “aptazyme ON/OFF ratio” value amounted to 1.14. In the case of U7G U8G G9C U10G U11G C12U C13G it was 1.05. In the case of U7G U8G G9C U10G U11G C12U C13A it was 1.14; in that of U7G U8G G9C U10G U11G C12U C13U, 1.17. Next, U7G U8G G9C U10G U11C C12U C13U: 1.11; U7G U8G G9C U10G U11C C12U C13G: 1.33; U7G U8G G9C U10G U11C C12U C13A: 1.15. On to U7G U8G G9C U10C C12A C13G, for which the “aptazyme ON/OFF ratio” value amounted to 1.27. Next, U7G U8G G9C U10C C12A C13U: 1.25; U7G U8G G9C U10C C12A C13A: 1.29. As for U7G U8G G9C C12A C13G, the “aptazyme ON/OFF ratio” value was determined as 1.08. In the case of U7G U8G G9C C12A C13U it was 1.2. In the case of U7G U8G G9C C12A C13A it was 1.22; in that of U7G U8G G9C U10G U11G C12G C13G, 1.17; in that of U7G U8G G9C U10G U11G C12G C13A, 1.06. In the case of U7G U8G G9C U10G U11G C12G C13U it was 1.1. Regarding U7G U8G G9C U11C C12U C13U, the “aptazyme ON/OFF ratio” value worked out at 1.26.

U7G U8G G9C U11C C12U C13A: the “aptazyme ON/OFF ratio” value is 1.43. Take U7G U8G G9C U11C C12U C13G: the “aptazyme ON/OFF ratio” value was determined as 1.37. In the case of U7G U8G G9C U11G C12U it was 1.31; in that of U7G U8G G9C U11G C12G, 1.6; in that of U7G U8G G9C U11G C12A, 1.73. Regarding U7G U8G G9C U11G C12A C13A, the “aptazyme ON/OFF ratio” value was determined as 1.14. In the case of U7G U8G G9C U11G C12A C13U it was 1.3; in that of U7G U8G G9C U11G C12A C13G, 1.23; in that of U7G U8G G9C U11C C12A C13A, 1.37.

Turning to U7G U8G G9C U11C C12A C13U, the “aptazyme ON/OFF ratio” value is 4.45. Next, U7G U8G G9C U11C C12A C13G: 1.13; U7G U8G G9C U10G U11A C12G: 1.16; U7G U8G G9C U10G U11A C12A: 1.17. Take U7G U8G G9C U10G U11A C12U: the “aptazyme ON/OFF ratio” value came out at 1.23. Next, U7G U8G G9U U10A U11A C12G: 1.19; U7G U8G G9U U10A U11A C12U: 1.31; U7G U8G G9U U10A U11A C12A: 1.14. In the case of U7G U8G G9C U10C U11C C12G C13U it was 1.04; in that of U7G U8G G9C U10C U11C C12G C13G, 1.06. Next, U7G U8G G9C U10C U11C C12G C13A: 1.05; U7G U8G G9C U10G U11C C12G: 1.18; U7G U8G G9C U10G U11C C12U: 1.04. Consider U7G U8G G9C U10G U11C C12A, for which the “aptazyme ON/OFF ratio” value worked out at 1.25. In the case of U7G U8G G9C U10G U11G it was 1.26; in that of U7G U8G G9C U10G U11A, 1.32. In the case of U7G U8G G9C U10G U11C it was 1.06; in that of U7G U8G G9U U10A C13U, 1.31. U7G U8G G9U U10A C13G: the “aptazyme ON/OFF ratio” value was determined as 1.1.

With U7G U8G G9U U10A C13A, the “aptazyme ON/OFF ratio” value turned out to be 1.13. Next, U7G U8G G9U U10A U11G C12A C13A: 1.1; U7G U8G G9U U10A U11G C12A C13U: 1.11; U7G U8G G9U U10A U11G C12A C13G: 1.04. Consider U7G U8G G9C U10C C12U C13A, for which the “aptazyme ON/OFF ratio” value is 1.29.

As to U7G U8G G9C U10C C12U C13U, the “aptazyme ON/OFF ratio” value was determined as 1.08. In the case of U7G U8G G9C U10C C12U C13G it was 1.36.

(Values after the RNAGym collection of RNA variant scans (doi:10.1021/acssynbio.7b00057).)
